Measurements as given in PMC3482342 (Journal of molecular biology, 2011).

Target: T1, Full-length MukF (E. coli, UniProt P60293 1-440)
T1 sequence (looked up): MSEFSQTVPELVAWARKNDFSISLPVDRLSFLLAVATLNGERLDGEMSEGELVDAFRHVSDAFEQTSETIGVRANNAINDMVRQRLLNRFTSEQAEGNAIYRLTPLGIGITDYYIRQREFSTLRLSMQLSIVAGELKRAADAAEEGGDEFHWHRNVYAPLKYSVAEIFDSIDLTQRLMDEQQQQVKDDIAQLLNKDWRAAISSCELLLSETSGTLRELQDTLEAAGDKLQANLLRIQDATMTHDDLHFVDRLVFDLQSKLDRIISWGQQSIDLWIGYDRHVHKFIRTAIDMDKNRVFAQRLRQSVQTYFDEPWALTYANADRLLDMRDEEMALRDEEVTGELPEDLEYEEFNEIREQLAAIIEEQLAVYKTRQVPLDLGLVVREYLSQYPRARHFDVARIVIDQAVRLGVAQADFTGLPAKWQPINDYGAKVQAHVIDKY
Assay: AUC

stoichiometry N: 2 MukE per MukF
B1: MukE-DRER (MukE-D196A/R198A/E199S/R202S) (natural protein, E. coli, UniProt P22524 10-234, looked up)
chain: MPVKLAQALANPLFPALDSALRSGRHIGLDELDNHAFLMDFQEYLEEFYARYNVELIRAPEGFFYLRPRSTTLIPRSVLSELDMMVGKILCYLYLSPERLANEGIFTQQELYDELLTLADEAKLLKLVNNRSTGSDVDRQKLQEKVRSSLNRLRRLGMVWFMGHDSSKFRITESVFRFGADVRAGDAPASAQSRLIRDGEAMPIENHLQLNDETEENQPDSGEEE
